Test results taken from US20240425587A1 (Alector, published 2024).
Changes are numbered by the printed parent chain. Names may count otherwise.

B1: B3 (hIgG4 isotype) (antibody, V domains shown)
VH: EVKLVESGGGLVKPGGSLKLSCTASGFTFSNYAMSWVRQTPEKRLEWVASISGGGSTYYPDSVKGRFTIAIDYARNILYLQMSSLRSEDTAIYFCTRGVSYGDYAMDYWGQGTSVTVSS
VL: ETTVTQSPASLSMAIGEKVTIRCVTSTDIDDDMNWYQQKPGGPPKLLISEGNTLRPGVPSRFSSSGYGSDFVFTIEDMLSEDVADYYCLQSDNLPLTFGAGTKVELK
B2: hPA-002 (antibody, V domains shown)
VH: QVTLQESGPGILQPSQTLSLTCSFSGFSLSTFGMGVGWIRQPSGKGLEWLAHIWWDDDKYYNPALKSRLTISKDTSKNQVFLKIASVDTADIATYYCARVEDYGNPFDYWGQGTTL
VL: DIQMNQSPSSLSASLGDTITITCHASQNIHVWLNWYQQKPGNIPKLLIYKASNLHTGVPSRFSGSGSGTGFTVTISSLQPEDIATYYCQQGQSYPLTFGAGTKLELK
B3: hPA-005 (antibody, V domains shown)
VH: QVILKESGPGILQSSQTLSLTCSFSGFSLSTFGMGVGWIRQPSGKGLESLAHIWWDDDKFYNPALKSRLTISKDTSKSQVFLKIANVDTADIATYYCTRIEDYGSYFAYWGQGTTLTVSS
VL: B2 VL with I2V, T18P, K39R, K45R, V73L, L96Y, A100G, L106I
B4: hPA-004 (antibody, V domains shown)
VH: QVTLKESGPGMLQPSQTLSLACSFSGFSLNSFGVAVGWIRQPSGKGLEWLAHIWWDDDKSYNPALKSRLTISKDTSKNQVFLKLANVDTADTATYYCTRIADYGNHFDYWGQGTALTVSS
VL: B2 VL with I29S, N34S, V73L, S77G, S93T, L96F, A100S, L106I
B5: B3 (antibody, V domains shown)
VH: B1 VH
VL: B1 VL
notes: B-cell cloning campaign (mice)
B6: B4 (antibody, V domains shown)
VH: B1 VH with F94Y
VL: B1 VL
notes: as for B5
B7: C3 (antibody, V domains shown)
VH: EVHLQQSGPELVKPGASVKISCKASGYTFTDYYLNWVKLSLGKSLEWIGDINPNDGDTSYNQTFKGKATLTVDKSSSTAYMELRSLTSEDSAVYYCARRASSYYSNYGWYFDVWGTGTTVTVSS
VL: DILLTQSPAILSVSPGERVSFSCRASQSIGTSIHWYQQRTNGSPRLLIKFASESISGIPSRFSGSGSGTDFTLSINTVESEDIGDYYCQESNSWPTTFGAGTKLELK
notes: first hybridoma campaign
B8: D9 (antibody, V domains shown)
VH: QVQLKESGPGLVAPSQSLSITCSVSGFSLSSYAINWVREPPGKGLEWLGVIWTGGGTNYNSALKSRLSISKDNSKSQVFLKMNSLQTDDTARYYCARNSIYYDYDGFAYWGQGTLVTVSA
VL: DIQMTQSSSYLSVSLGGRVTITCKASDHINNWLAWYQQKPGNAPRLLISGATSLETGVPSRFSGSGSGKDYTLSITSLQTEDFTTYYCQQYWSTPYTFGGGTKLEIK
notes: second hybridoma campaign

These binders were tested against human PILRA on the surface of primary human macrophages or monocytes (human, UniProt Q9UKJ1 20-303) (assay: cell-based or functional assay).
Sequence of human PILRA on the surface of primary human macrophages or monocytes (Q9UKJ1 20-303): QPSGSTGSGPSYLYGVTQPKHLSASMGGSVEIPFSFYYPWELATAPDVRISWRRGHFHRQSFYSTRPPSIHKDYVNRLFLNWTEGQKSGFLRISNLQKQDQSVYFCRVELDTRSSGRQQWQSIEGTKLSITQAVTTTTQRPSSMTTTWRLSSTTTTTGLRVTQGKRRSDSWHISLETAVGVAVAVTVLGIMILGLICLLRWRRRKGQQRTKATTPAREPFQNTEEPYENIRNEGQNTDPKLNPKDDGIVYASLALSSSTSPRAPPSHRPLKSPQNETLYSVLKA
With B1 the “hPILRA downregulation EC50” value was 0.006 µg/mL.

Each binder was assayed against T1, human PILRA, c-term His-Avi tag (human, UniProt Q9UKJ1 20-197, limits assumed) (assay: SPR (Biacore), antibody captured, PILRA as analyte).
T1 construct: not shown: C-terminal His-Avi tag
T1 sequence (Q9UKJ1 20-197 limits assumed): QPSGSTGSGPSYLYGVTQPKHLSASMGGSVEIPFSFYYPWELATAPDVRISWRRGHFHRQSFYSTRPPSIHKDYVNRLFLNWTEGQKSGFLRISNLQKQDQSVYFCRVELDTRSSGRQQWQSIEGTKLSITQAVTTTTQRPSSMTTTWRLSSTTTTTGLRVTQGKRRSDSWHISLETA
Procedure, shortened: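 Antibodies were captured at 10 μg/ml on an anti-huFc or anti-msFc CM5 surface, and human PILRA was flowed at 33, 100 and 300 nM in HBSTE/0.5% BSA, pH 7.4. The surface was regenerated with 10 mM glycine-HCl, pH 2.1, after each analyte. Curves were double-referenced with buffer injections.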
For B2, the Kd was 23.4 nM, the koff was 0.0052 s⁻¹ and the kon was 220000 M⁻¹ s⁻¹. It also gave a t½ of 2.2 min. Work on B3 yielded a Kd of 7 nM, a koff of 0.0015 s⁻¹ and a kon of 210000 M⁻¹ s⁻¹. For the same binder, the t½ was 7.9 min. With B4 the Kd was 9 nM, the koff was 0.0011 s⁻¹ and the kon was 130000 M⁻¹ s⁻¹. For the same binder, the t½ was 10.1 min. B5: no binding (tested: 33, 100, and 300 nM). With B6 the Kd was 88.3 nM, the koff was 0.00054 s⁻¹ and the kon was 6100 M⁻¹ s⁻¹. For the same binder, the t½ was 21.4 min. B7 was tested, and the Kd was 8.3 nM, the koff was 0.0042 s⁻¹ and the kon was 510000 M⁻¹ s⁻¹. The t½ was 2.7 min.

The binders below were run against T2, human PILRA, G78 variant, ectopically expressed on 293 cells (human, UniProt Q9UKJ1 20-303) (assay: screening summary, TCP groups).
T2 construct: the cells are labelled G78; also called hA G78 OE; hA
T2 sequence (Q9UKJ1 other isoform, or with tags, fused parts or gaps mutant): as the sequence (Q9UKJ1 20-303) above, with R59G counted along it
B8: binds.

Each binder was assayed against cynomolgus PILRA, ectopically expressed on 293 cells (cynomolgus monkey) (assay: screening summary, TCP groups).
Sequence of cynomolgus PILRA, ectopically expressed on 293 cells (cynomolgus monkey) (chain, as listed by the source): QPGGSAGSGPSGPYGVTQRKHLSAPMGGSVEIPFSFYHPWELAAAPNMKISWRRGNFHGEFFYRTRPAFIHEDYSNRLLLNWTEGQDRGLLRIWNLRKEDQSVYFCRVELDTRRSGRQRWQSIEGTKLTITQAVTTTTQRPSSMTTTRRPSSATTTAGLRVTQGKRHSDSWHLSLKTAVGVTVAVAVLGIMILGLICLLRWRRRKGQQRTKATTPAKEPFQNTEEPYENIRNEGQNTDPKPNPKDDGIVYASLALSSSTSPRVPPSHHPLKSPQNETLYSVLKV
B5: binds. B6: binds. B7: binds.

What follows are binders tested against T3, PILRA Fc (soluble human PILRA) (human, UniProt Q9UKJ1 20-197, limits assumed) (assay: flow cytometry blocking assay, graph 'V1 Blocking_CD3+T Donor 906': antibody mixed with PILRA-Fc, then human CD3+ T cells; bound PILRA-Fc detected with AF647 2nd Ab; blocked partner: PILRA ligand on the T cells).
T3 construct: also called soluble PILRA; not shown: Fc part, detected with anti-human IgG
T3 sequence (Q9UKJ1 20-197 limits assumed): as the sequence (Q9UKJ1 20-197 limits assumed) above
Experimental: The ability of conditioned media samples containing antibodies to inhibit the binding of PILRA Fc to human CD3+ T cells was assessed. Briefly, conditioned media samples containing antibodies were incubated with 1.25 ug/ml PILRA Fc for 30 min at 4° C. and then added to human T cells. After 30 minutes incubation at 4° C., cells were washed, and bound PILRA Fc was detected with anti-human IgG Alexa 647. Cells were analyzed by flow cytometry on FACS Canto II, and for all cell lines, the amount of PILRA Fc binding (MIFI) and the percentage of PILRA Fc binding in the presence of conditioned media relative to PILRA Fc binding alone was calculated. Several antibodies inhibited binding of PILRA Fc to human T cells, and a few antibodies enhanced PILRA-Fc binding to T cells. Antibodies that show enhancement in this assay may block cis inhibition to promote trans interactions or may allosterically activate to enhance trans interactions without blocking cis.
In the case of B2, the “IC50 (read off the curve)” value is reported as ~1 µg/mL. For B3, the “IC50 (read off the curve)” value was ~3 µg/mL. For B4, the “IC50 (read off the curve)” value was ~3 µg/mL.
